The assay concerns the target T1, EphB4 in whole cell lysate of 293 cells stably transfected with EphB4 (human, UniProt P54760 16-987).
T1 construct: Denatured protein from the lysate of transfected 293 cells (Western blot)
T1 sequence: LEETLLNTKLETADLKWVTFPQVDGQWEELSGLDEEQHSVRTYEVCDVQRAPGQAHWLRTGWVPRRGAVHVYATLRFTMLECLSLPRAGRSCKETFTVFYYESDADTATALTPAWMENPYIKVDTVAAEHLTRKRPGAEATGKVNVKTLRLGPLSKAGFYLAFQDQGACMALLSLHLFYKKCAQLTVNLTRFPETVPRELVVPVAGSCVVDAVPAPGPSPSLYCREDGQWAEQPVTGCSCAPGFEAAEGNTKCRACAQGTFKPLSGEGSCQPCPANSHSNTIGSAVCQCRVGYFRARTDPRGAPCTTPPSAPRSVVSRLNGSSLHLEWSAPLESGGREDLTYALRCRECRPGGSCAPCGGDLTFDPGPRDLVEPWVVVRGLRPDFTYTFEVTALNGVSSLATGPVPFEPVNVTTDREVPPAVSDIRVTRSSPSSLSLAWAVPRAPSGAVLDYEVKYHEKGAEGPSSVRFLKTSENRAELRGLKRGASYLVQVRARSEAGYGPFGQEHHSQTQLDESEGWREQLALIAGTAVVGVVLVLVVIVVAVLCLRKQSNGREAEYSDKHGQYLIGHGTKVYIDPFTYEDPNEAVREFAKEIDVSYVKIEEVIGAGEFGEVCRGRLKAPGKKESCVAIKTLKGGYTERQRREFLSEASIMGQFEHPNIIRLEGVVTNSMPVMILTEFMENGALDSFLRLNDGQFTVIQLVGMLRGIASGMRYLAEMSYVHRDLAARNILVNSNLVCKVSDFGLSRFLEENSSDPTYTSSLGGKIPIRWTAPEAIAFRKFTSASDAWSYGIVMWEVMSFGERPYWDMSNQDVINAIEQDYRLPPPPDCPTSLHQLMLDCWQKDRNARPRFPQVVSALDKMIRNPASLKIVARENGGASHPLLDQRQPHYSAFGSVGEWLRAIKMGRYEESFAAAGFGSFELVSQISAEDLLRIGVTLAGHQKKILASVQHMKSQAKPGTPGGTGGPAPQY
The assay can be described thus: Western blot on lysate of EphB4-transfected 293 cells. In general terms: In western blotting, separated proteins are transferred to a membrane and probed.

B1: mouse monoclonal antibody #47 (antibody, V domains shown)
VH: EVQLQQSGPELVKPGASVKISCKASGYTFTDYYMNWVKQSHGKGLEWIGDNNPNNGGTTYNQKFKGKATLTVDKSSSTAYMELRSLTSEDSAVYYCARGKYYGTSYGWYFDVWGTGTTVTVSS
VL: DIQMTQSPASLSASVGETVTITCRISDNIDSYLAWFQQKQGKSPQLLVYDATVLADGVPSRFSGSGSGTQYSLKINSLQSEDAARYYCQVYYSIPWTFGGGTKLEIK
notes: also called m47; Mu #47
Regarding B1, the binding result is listed as “binds”.

B2: mouse monoclonal antibody #131 (antibody, V domains shown)
VH: QVQLKQSGAELVKPGASVKISCKASGYTFTDYYINWVKQRPGQGLEWIGKIGPRIGTNYYNENFKGKATLTADISSNTAYMQLHTLTSEDSAVYFCARSEDYSGYVSYALDYWGQGTSVTVSS
VL: NIVMTQSPKSMSMSVGERVTLSCKASENVDTYVSWYQQKPDQSPELLIYGASNRYTGVPDRFTGSGSATDFTLTISSVQAEDLADYHCGQTYRYPFTFGGGTKLEIK
notes: also called m131
On to B2, for which the binding result is “binds”.

For the origin of these results see patent publication US20090196880A1 (VASGENE THERAPEUTICS, published 2009).
